# Experiments:
# [1] = Safety of s.c. IMP321 in cancer patients; type: in vivo, human
# Protocol: (§1) Doses of 6-30 mg per subcutaneous (s.c.) injection of IMP321 have been shown, thus far, to be safe and provide an acceptable systemic exposure based on the results of pharmacokinetics data obtained in cancer patients.
# [2] = Pharmacokinetics of IMP321 after s.c. injection in cancer patients; type: in vivo, human; conditions: for at least 24 hours after s.c. injection; patients injected with IMP321 doses of more than 6 mg
# Protocol: as §1
molecule,measurement,setting,value
"IMP321: recombinant soluble human LAG-3Ig fusion protein, 160-kDa dimer: extracellular domain of hLAG-3 fused to human IgG1 Fc; APC activator (protein, left off: small tags and cut ends; a dimerising Fc or GST) LQPGAEVPVVWAQEGAPAQLPCSPTIPLQDLSLLRRAGVTWQHQPDSGPPAAAPGHPLAPGPHPAAPSSWGPRPRRYTVLSVGPGGLRSGRLPLQPRVQLDERGRQRGDFSLWLRPARRADAGEYRAAVHLRDRALSCRLRLRLGQASMTASPPGSLRASDWVILNCSFSRPDRPASVHWFRNRGQGRVPVRESPHHHLAESFLFLPQVSPMDSGPWGCILTYRDGFNVSIMYNLTVLGLEPPTPLTVYAGAGSRVGLPCRLPAGVGTRSFLTAKWTPPGGGPDLLVTGDNGDFTLRLEDVSQAQAGTYTCHIHLQEQQLNATVTLAIITVTPKSFGSPGSLGKLLCEVTPVSGQERFVWSSLDTPSQRSFSGPWLEAQEAQLLSQPWQCQLYQGERLLGAAVYFTELSSPG",safety / acceptable systemic exposure,[1]; doses of 6-30 mg per s.c. injection,safe
same,dose limiting toxicity,[1]; to date,No dose limiting toxicity has been observed
same,blood concentration of IMP321,[2],> 1 ng/mL

# Source: patent publication US20240277804A1, “TRIPLE COMBINATION THERAPY” (Immutep S.A.S., priority 2021, published 2024)
